# Test results published in paper PMC2704923.
# How the values were obtained:
# [1] = tested on: CENP-N K15A (Homo sapiens); test: EMSA
# [2] = tested on: CENP-N R124A (Homo sapiens); test: EMSA
# [3] = target: H3^CATD mononucleosome, reconstituted with alpha-satellite DNA; test: native gel or EMSA
# [4] = tested on: CENP-N (Homo sapiens); test: EMSA
# Sequence of CENP-N (wildtype), 35S-labelled, in vitro translated (Q96H22 whole entry): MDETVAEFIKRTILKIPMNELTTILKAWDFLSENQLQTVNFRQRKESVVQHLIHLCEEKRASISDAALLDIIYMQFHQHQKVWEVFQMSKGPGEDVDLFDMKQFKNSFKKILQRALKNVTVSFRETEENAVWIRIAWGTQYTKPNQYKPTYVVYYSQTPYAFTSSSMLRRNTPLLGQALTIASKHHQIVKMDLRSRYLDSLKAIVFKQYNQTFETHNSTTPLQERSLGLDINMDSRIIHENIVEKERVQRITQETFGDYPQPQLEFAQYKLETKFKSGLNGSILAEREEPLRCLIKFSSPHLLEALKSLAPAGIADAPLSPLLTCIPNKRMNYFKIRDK
substance,measurement,setting,value
"CENP-A nucleosome, alpha-satellite",Kd,[1],297 nM
same,Kd,[2],72 nM
"CENP-N (wildtype), 35S-labelled, in vitro translated (from UniProt Q96H22 1-339) (natural protein)",Kd,[3],163 nM
"H3CATD nucleosome, alpha-satellite",Kd,[4],163 nM
